Source: US20250019440A1 (Zymeworks, published 2025)

B1: v39005 (bispecific) (other)
heavy chain 1 (H1): EVQLVESGGGLVQPGGSLRLSCAASGVTFNYYGMSWIRQAPGKGLEWVASITSSGGRIYYPDSVKGRFTISRENTQKTLYLQMNSLRAEDTAVYYCTLDGRDGWVAYWGQGTLVTVSSASTKGPSVFPLAPSSKSTSGGTAALGCLVKDYFPEPVTVSWNSGALTSGVHTFPAVLQSSGLYSLSSVVTVPSSSLGTQTYICNVNHKPSNTKVDKKVEPKSCDKTHTCPPCPAPEAAGGPSVFLFPPKPKDTLMISRTPEVTCVVVSVSHEDPEVKFNWYVDGVEVHNAKTKPREEQYNSTYRVVSVLTVLHQDWLNGKEYKCKVSNKALPAPIEKTISKAKGQPREPQVYVYPPSRDELTKNQVSLTCLVKGFYPSDIAVEWESNGQPENNYKTTPPVLDSDGSFALVSKLTVDKSRWQQGNVFSCSVMHEALHNHYTQKSLSLSPGGGGGSGQVQLVESGGGLVQPGGSLRLSCSVSGIDLSSNPMIWVRQAPGKGLQYIGIIDTDGSTYYADWAKGRFTISKDSTTVYLQINSPRAEDTAVYYCARRLHGSSNGYYDDLWGQGTLVTVSSGGGGSGGGGSGGGGSGGGGSDGQMTQSPSSVSASVGDRVTITCQASQSIYSYLSWYQQKPGQRPKLLIYKASTLASGVPSRFSGSGSGTDFTLTISSVQPEDFATYYCQQGYTVTNVDKNTFGGGTKVEIK
light chain (L1): NFMLTQPHSVSESPGKTVTISCKRNTGNIGSNYVNWYQQHEGSSPTTIIYRNDKRPDGVSDRFSGSIDRSSKSASLTISNLKTEDEADYFCQSYSSGFIFGGGTKLTVLGQPKAAPSVTLFPPSSEELQANKATLVCLISDFYPGAVTVAWKADSSPVKAGVETTTPSKQSNNKYAASSYLSLTPEQWKSHRSYSCQVTHEGSTVEKTVAPTECS
heavy chain 2 (H2): QVQLVESGGGLVQPGGSLRLSCSVSGIDLSSNPMIWVRQAPGKGLQYIGIIDTDGSTYYADWAKGRFTISKDSTTVYLQINSPRAEDTAVYYCARRLHGSSNGYYDDLWGQGTLVTVSSGGGGSGGGGSGGGGSGGGGSDGQMTQSPSSVSASVGDRVTITCQASQSIYSYLSWYQQKPGQRPKLLIYKASTLASGVPSRFSGSGSGTDFTLTISSVQPEDFATYYCQQGYTVTNVDKNTFGGGTKVEIKAAEPKSSDKTHTCPPCPAPEAAGGPSVFLFPPKPKDTLMISRTPEVTCVVVSVSHEDPEVKFNWYVDGVEVHNAKTKPREEQYNSTYRVVSVLTVLHQDWLNGKEYKCKVSNKALPAPIEKTISKAKGQPREPQVYVLPPSRDELTKNQVSLLCLVKGFYPSDIAVEWESNGQPENNYLTWPPVLDSDGSFFLYSKLTVDKSRWQQGNVFSCSVMHEALHNHYTQKSLSLSPGGGGGSGDRPWNPPTFSPALLVVTEGDNATFTCSFSNTSESFVLNWYRMSPSNQTDALAAFPEDRSQPGQDARFRVTQLPNGRDFHMSVVRARRNDSGTYLCGAASLAPKAQIKESLRAELRVTE
B2: v38426 (other)
heavy 1: EVQLVESGGGLVQPGGSLRLSCAASGVTFNYYGMSWIRQAPGKGLEWVASITSSGGRIYYPDSVKGRFTISRENTQKTLYLQMNSLRAEDTAVYYCTLDGRDGWVAYWGQGTLVTVSSASTKGPSVFPLAPSSKSTSGGTAALGCLVKDYFPEPVTVSWNSGALTSGVHTFPAVLQSSGLYSLSSVVTVPSSSLGTQTYICNVNHKPSNTKVDKKVEPKSCDKTHTCPPCPAPEAAGGPSVFLFPPKPKDTLMISRTPEVTCVVVSVSHEDPEVKFNWYVDGVEVHNAKTKPREEQYNSTYRVVSVLTVLHQDWLNGKEYKCKVSNKALPAPIEKTISKAKGQPREPQVYVYPPSRDELTKNQVSLTCLVKGFYPSDIAVEWESNGQPENNYKTTPPVLDSDGSFALVSKLTVDKSRWQQGNVFSCSVMHEALHNHYTQKSLSLSPGGGGGSGQVQLVESGGGLVQPGGSLRLSCSVSGIDLSSNPMIWVRQAPGKGLQYIGIIDTDGSTYYADWAKGRFTISKDSTTVYLQINSPRAEDTAVYYCARRLHGSSNGYYDDLWGQGTLVTVSSGGGGSGGGGSGGGGSGGGGSDGQMTQSPSSVSASVGDRVTITCQASQSIYSYLSWYQQKPGQRPKLLIYKASTLASGVPSRFSGSGSGTDFTLTISSVQPEDFATYYCQQGYTVTNVDKNTFGGGTKVEIK
light: NPPTFSPALLVVTEGDNATFTCSFSNTSESFVLNWYRMSPSNQTDALAAFPEDRSQPGQDARFRVTQLPNGRDFHMSVVRARRNDSGTYLCGAASLAPKAQIKESLRAELRVTEGGGGSGNFMLTQPHSVSESPGKTVTISCKRNTGNIGSNYVNWYQQHEGSSPTTIIYRNDKRPDGVSDRFSGSIDRSSKSASLTISNLKTEDEADYFCQSYSSGFIFGGGTKLTVLGQPKAAPSVTLFPPSSEELQANKATLVCLISDFYPGAVTVAWKADSSPVKAGVETTTPSKQSNNKYAASSYLSLTPEQWKSHRSYSCQVTHEGSTVEKTVAPTECS
heavy 2: QVQLVESGGGLVQPGGSLRLSCSVSGIDLSSNPMIWVRQAPGKGLQYIGIIDTDGSTYYADWAKGRFTISKDSTTVYLQINSPRAEDTAVYYCARRLHGSSNGYYDDLWGQGTLVTVSSGGGGSGGGGSGGGGSGGGGSDGQMTQSPSSVSASVGDRVTITCQASQSIYSYLSWYQQKPGQRPKLLIYKASTLASGVPSRFSGSGSGTDFTLTISSVQPEDFATYYCQQGYTVTNVDKNTFGGGTKVEIKAAEPKSSDKTHTCPPCPAPEAAGGPSVFLFPPKPKDTLMISRTPEVTCVVVSVSHEDPEVKFNWYVDGVEVHNAKTKPREEQYNSTYRVVSVLTVLHQDWLNGKEYKCKVSNKALPAPIEKTISKAKGQPREPQVYVLPPSRDELTKNQVSLLCLVKGFYPSDIAVEWESNGQPENNYLTWPPVLDSDGSFFLYSKLTVDKSRWQQGNVFSCSVMHEALHNHYTQKSLSLSPG
notes: CD3 Fab with C-term Cldn18.2 scFv x Cldn18.2 scFv Fc with attenuated (KO) PD-1 attached to CD3 LC (N-term)
B3: v38424 (other)
heavy 1: EVQLVESGGGLVQPGGSLRLSCAASGVTFNYYGMSWIRQAPGKGLEWVASITSSGGRIYYPDSVKGRFTISRENTQKTLYLQMNSLRAEDTAVYYCTLDGRDGWVAYWGQGTLVTVSSASTKGPSVFPLAPSSKSTSGGTAALGCLVKDYFPEPVTVSWNSGALTSGVHTFPAVLQSSGLYSLSSVVTVPSSSLGTQTYICNVNHKPSNTKVDKKVEPKSCDKTHTCPPCPAPEAAGGPSVFLFPPKPKDTLMISRTPEVTCVVVSVSHEDPEVKFNWYVDGVEVHNAKTKPREEQYNSTYRVVSVLTVLHQDWLNGKEYKCKVSNKALPAPIEKTISKAKGQPREPQVYVYPPSRDELTKNQVSLTCLVKGFYPSDIAVEWESNGQPENNYKTTPPVLDSDGSFALVSKLTVDKSRWQQGNVFSCSVMHEALHNHYTQKSLSLSPGGGGGSGDRPWNPPTFSPALLVVTEGDNATFTCSFSNTSESFVLNWYRMSPSNQTDALAAFPEDRSQPGQDARFRVTQLPNGRDFHMSVVRARRNDSGTYLCGAASLAPKAQIKESLRAELRVTE
light: NFMLTQPHSVSESPGKTVTISCKRNTGNIGSNYVNWYQQHEGSSPTTIIYRNDKRPDGVSDRFSGSIDRSSKSASLTISNLKTEDEADYFCQSYSSGFIFGGGTKLTVLGQPKAAPSVTLFPPSSEELQANKATLVCLISDFYPGAVTVAWKADSSPVKAGVETTTPSKQSNNKYAASSYLSLTPEQWKSHRSYSCQVTHEGSTVEKTVAPTECS
heavy 2: QVQLVESGGGLVQPGGSLRLSCSVSGIDLSSNPMIWVRQAPGKGLQYIGIIDTDGSTYYADWAKGRFTISKDSTTVYLQINSPRAEDTAVYYCARRLHGSSNGYYDDLWGQGTLVTVSSGGGGSGGGGSGGGGSGGGGSDGQMTQSPSSVSASVGDRVTITCQASQSIYSYLSWYQQKPGQRPKLLIYKASTLASGVPSRFSGSGSGTDFTLTISSVQPEDFATYYCQQGYTVTNVDKNTFGGGTKVEIKAAEPKSSDKTHTCPPCPAPEAAGGPSVFLFPPKPKDTLMISRTPEVTCVVVSVSHEDPEVKFNWYVDGVEVHNAKTKPREEQYNSTYRVVSVLTVLHQDWLNGKEYKCKVSNKALPAPIEKTISKAKGQPREPQVYVLPPSRDELTKNQVSLLCLVKGFYPSDIAVEWESNGQPENNYLTWPPVLDSDGSFFLYSKLTVDKSRWQQGNVFSCSVMHEALHNHYTQKSLSLSPG
notes: CD3 Fab x Cldn18.2 scFv Fc, attenuated (KO) PD-1 attached to HC1 (C-term)

How the values were obtained:
CD3 on T cells = CD3 on T cells (Homo sapiens (Human), UniProt P07766 23-207; P04234 22-171; P09693 23-182); test: cell-based or functional assay
Human CD3 (recombinant) = Human CD3 (recombinant) (human); test: SPR, CD3 amine-coupled, variant as analyte, 1:1 model
Human PD-L1 = molecular target: T1, Human PD-L1 (human, UniProt Q9NZQ7 19-239); test: SPR, PD-L1 amine-coupled, variant as analyte
T1 construct: Amine-coupled to a CM5 chip for SPR; also called recombinant human PD-L1
T1 sequence (Q9NZQ7 19-239 limits assumed): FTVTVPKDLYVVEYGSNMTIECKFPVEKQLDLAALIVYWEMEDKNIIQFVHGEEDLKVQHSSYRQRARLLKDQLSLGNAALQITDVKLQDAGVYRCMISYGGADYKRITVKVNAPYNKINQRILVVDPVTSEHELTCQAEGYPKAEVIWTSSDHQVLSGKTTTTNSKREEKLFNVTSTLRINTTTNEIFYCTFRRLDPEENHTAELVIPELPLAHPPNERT

Chain of Human CD3 (recombinant) (human) (chain, as listed by the source): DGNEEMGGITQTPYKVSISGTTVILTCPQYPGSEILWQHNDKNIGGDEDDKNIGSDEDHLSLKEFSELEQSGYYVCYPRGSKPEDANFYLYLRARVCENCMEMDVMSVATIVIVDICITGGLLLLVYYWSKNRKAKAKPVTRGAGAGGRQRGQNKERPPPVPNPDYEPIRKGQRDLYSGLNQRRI
Chain of CD3 on T cells (P07766 23-207 limits assumed, chain 1 of 3): as the sequence (chain, as listed by the source) above
Chain of CD3 on T cells (P04234 22-171 limits assumed, chain 2 of 3): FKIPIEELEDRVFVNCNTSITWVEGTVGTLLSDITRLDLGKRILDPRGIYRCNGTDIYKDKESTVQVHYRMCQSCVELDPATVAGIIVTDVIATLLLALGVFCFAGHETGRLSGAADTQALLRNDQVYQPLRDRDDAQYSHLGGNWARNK
Chain of CD3 on T cells (P09693 23-182 limits assumed, chain 3 of 3): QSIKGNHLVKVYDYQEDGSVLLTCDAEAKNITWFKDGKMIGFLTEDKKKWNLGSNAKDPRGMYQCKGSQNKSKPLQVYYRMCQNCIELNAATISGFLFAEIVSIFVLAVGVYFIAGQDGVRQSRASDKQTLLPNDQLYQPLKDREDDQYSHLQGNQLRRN

| Binder | EC50 (read off the curve); hybrid PD-1/PD-L1 reporter gene assay, delta RLU, PD-1+ Jurkat T cells with SNU-620 cells, bottom graph (CD3 on T cells) [nM] | Kd (Human CD3 (recombinant)) [nM] | binding result (Human PD-L1) |
| --- | --- | --- | --- |
| B1 | ~0.05 | – | – |
| B2 | – | 77 | no binding |
| B3 | – | 37 | no binding |
